From article PMC11703348, “Role of Aspartate 42 and Histidine 79 in the aiPLA2 activity and oligomeric status of Prdx6 at low pH” (Research Square, 2024)

How the values were obtained:
[1] = target: the molecule itself; experiment: dynamic light scattering; pH 7.4; protein 2 mg/ml, 25 °C; hydrodynamic diameter and volume fraction (Zetasizer)
[2] = target: the molecule itself; experiment: native gel or EMSA; native-PAGE at neutral pH: 50 mM Tris-HCl, 100 mM NaCl pH 7.4, running buffer 35 mM Hepes, 43 mM imidazole pH 7.4; continuous 7.5% gel, non-reducing, non-denaturing; markers BSA and ferritin
[3] = target: the molecule itself; experiment: native gel or EMSA; native-PAGE at low pH: 40 mM Na-acetate pH 4, running buffer 30 mM beta alanine, 20 mM lactic acid pH 3.8, reverse polarity; continuous 7.5% gel, non-reducing, non-denaturing; markers BSA and ferritin

B1: Peroxiredoxin 6 (Prdx6), recombinant rat wild type (enzyme, UniProt O35244 1-224, looked up)
chain: MPGGLLLGDEAPNFEANTTIGHIRFHDFLGDSWGILFSHPRDFTPVCTTELGRAAKLAPEFAKRNVKLIALSIDSVEDHFAWSKDINAYNGAAPTEKLPFPIIDDKDRDLAILLGMLDPAEKDEKGMPVTARVVFIFGPDKKLKLSILYPATTGRNFDEILRVVDSLQLTASNPVATPVDWKKGESVMVLPTLPEEEAKQLFPKGVFTKELPSGKKYLRYTPQP
notes: Peroxiredoxin 6 (Prdx6), rat, wild type; cloned between the NdeI and SapI sites of pTYB1; no extra residues remain after intein self-cleavage; also called Wt Prdx6; WT Prdx6
stoichiometry N [1]: 2

B2: D42A Prdx6 (Asp42 to Ala mutant of rat Prdx6) (enzyme, UniProt O35244 1-224, looked up)
chain: MPGGLLLGDEAPNFEANTTIGHIRFHDFLGDSWGILFSHPRAFTPVCTTELGRAAKLAPEFAKRNVKLIALSIDSVEDHFAWSKDINAYNGAAPTEKLPFPIIDDKDRDLAILLGMLDPAEKDEKGMPVTARVVFIFGPDKKLKLSILYPATTGRNFDEILRVVDSLQLTASNPVATPVDWKKGESVMVLPTLPEEEAKQLFPKGVFTKELPSGKKYLRYTPQP
notes: Peroxiredoxin 6 (Prdx6), rat, with Asp42 replaced by Ala (QuikChange mutagenesis); the methods print it once as Asp43Ala; Same construct as m1 with the point mutation; also called Asp42A; Asp42-Ala
stoichiometry N [2]: 2
stoichiometry N [3]: ~2

B3: H79A Prdx6 (His79 to Ala mutant of rat Prdx6) (enzyme, UniProt O35244 1-224, looked up)
chain: MPGGLLLGDEAPNFEANTTIGHIRFHDFLGDSWGILFSHPRDFTPVCTTELGRAAKLAPEFAKRNVKLIALSIDSVEDAFAWSKDINAYNGAAPTEKLPFPIIDDKDRDLAILLGMLDPAEKDEKGMPVTARVVFIFGPDKKLKLSILYPATTGRNFDEILRVVDSLQLTASNPVATPVDWKKGESVMVLPTLPEEEAKQLFPKGVFTKELPSGKKYLRYTPQP
notes: Peroxiredoxin 6 (Prdx6), rat, with His79 replaced by Ala (QuikChange mutagenesis); Same construct as m1 with the point mutation; also called His79A; His79-Ala
stoichiometry N [2]: 2
stoichiometry N [3]: ~2
